Columns and labels:
[1] = biological target: calmodulin (CaM) cysteine mutant E11C (UniProt P0DP23); assay: FRET or BRET
[2] = biological target: Alexa Fluor 555-labeled E11C calmodulin mutant (UniProt P0DP23); assay: FRET or BRET
[3] = biological target: Alexa Fluor 594-modified E11C CaM (UniProt P0DP23); assay: FRET or BRET
[4] = biological target: calmodulin (CaM) cysteine mutant E11C (UniProt P0DP23); assay: solvatochromic fluorescence
[5] = biological target: calmodulin (CaM) cysteine mutant M145C (UniProt P0DP23); assay: solvatochromic fluorescence
[6] = biological target: calmodulin (CaM) cysteine mutant M76C (UniProt P0DP23); assay: solvatochromic fluorescence

| increase in the acceptor fluorescence after Ca2+ addition [1] [fold] | FRET fluorescence increase (Ca2+-bound over apo-state) [2] [fold] | FRET fluorescence increase at 611 nm [3] [fold] | increase of the direct fluorescence emission from 4DMN [3] [fold] | 4DMN fluorescence increase at 505 nm (Ca2+-bound complex over apo-state) [4] [fold] | 4DMN fluorescence increase at 505 nm (Ca2+-bound complex over apo-state) [5] [fold] | 4DMN fluorescence increase at 505 nm (Ca2+-bound complex over apo-state) [6] [fold] | Substance |
| --- | --- | --- | --- | --- | --- | --- | --- |
| 4.9 |  |  |  |  |  |  | 4DMN/Alexa 555-labeled M13 peptide (4DMN at position 8, Alexa Fluor 555 on an N-terminal cysteine) |
|  | 23 | 5.5 | 114 | 98 | 43 | 180 | 4DMN-labeled M13 peptide (M13, the calmodulin-binding peptide, with the 4DMN amino acid at position 8) |

Source: PMC3776414
